The results in this text go back to PMC11996674, “Mechanism of mammalian transcriptional repression by noncoding RNA”.

For this data set, the target named is RNA polymerase II (12-subunit) (Sus scrofa (thymus), UniProt A0A8D1DPV6;A0A0B8RVL1;P19387;O15514;P19388;P61218;P62487;P52434;P60899;P62875;A0 …). The data set is described as follows: cryo-EM; alternative conformation, EMD-18376; FA: 5 mM HEPES-NaOH pH 7.25, 150 mM NaCl, 10 uM ZnCl2, 1 mM MgCl2, 1 mM DTT, 4 nM RNA, 30 C; EMSA: 20 mM HEPES-NaOH pH 7.25, 150 mM NaCl, 1 mM MgCl2, 5% glycerol, 40 ug/ml BSA, 1 mM DTT, 5 nM RNA, 30 C (gel 4 C). The settings on record: protein: native; copies: 1;1;1;1;1;1;1;1;1;1;1;1; folded; canonical and alternative conformations.

B1: minimal Alu-RA (structured_RNA)
RNA: GAGGCAGGAGAAUGGCGUGAACCCGGGAGGUGGACGAGAUCGCUCCAGCCUGGGUGACAGAGCGAGACUCUGUCUC
For B1, the binding result is reported as “binds”.
